The supplement of paper PMC7125110
± gives the standard error. This sample holds only a part of the variants without activity.

B1: glmS ribozyme (parent)
chain: AUAAAAGCGCCAGAACUACAGAAAUGUAGUUGACGAGGAGGAGGUUUAUCGAAUUUUCGGCGGAUGCCUCCAAA

How the values were obtained:
Settings in all cases: with glucosamine-6-phosphate
glucosamine-6-phosphate [1] = variants of: B1; assay: self-cleavage kobs at 40 uM GlcN6P; higher = faster cleavage; RNA array
In short: (§1)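 On sequenced MiSeq chips, barcoded ribozyme variants were made in situ by E. coli RNA polymerase and followed at 37 °C through a hybridised Cy3 probe. Glucosamine-6-phosphate was flowed in at 40 μM to 10 mM in HEPES/KCl/Mg(OAc)2 buffer. Exponential fits to normalised per-tile medians gave kobs, and weighted Michaelis–Menten fits gave kcat and KM.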

glucosamine-6-phosphate [2] = variants of: B1; assay: self-cleavage kobs at 10000 uM GlcN6P; higher = faster cleavage; RNA array
In short: as §1

glucosamine-6-phosphate [3] = variants of: B1; assay: self-cleavage kobs at 640 uM GlcN6P; higher = faster cleavage; RNA array
In short: as §1

glucosamine-6-phosphate [4] = variants of: B1; assay: self-cleavage kobs at 2500 uM GlcN6P; higher = faster cleavage; RNA array
In short: as §1

glucosamine-6-phosphate [5] = variants of: B1; assay: self-cleavage kobs at 160 uM GlcN6P; higher = faster cleavage; RNA array
In short: as §1

Variant | self-cleavage kobs at 40 uM GlcN6P (glucosamine-6-phosphate [1]) [s⁻¹] | self-cleavage kobs at 10000 uM GlcN6P (glucosamine-6-phosphate [2]) [s⁻¹] | self-cleavage kobs at 640 uM GlcN6P (glucosamine-6-phosphate [3]) [s⁻¹] | self-cleavage kobs at 2500 uM GlcN6P (glucosamine-6-phosphate [4]) [s⁻¹] | self-cleavage kobs at 160 uM GlcN6P (glucosamine-6-phosphate [5]) [s⁻¹]
AUAAAAGCGCCGGAACUACAGAAAUGUAUUUGACGAGGAGGAGAUUUAUCGAAUUUUCGGCGAAUGCCUCCAAA | < 1e-05 | < 1e-05 | – | – | –
AUAAAAGCGCCAGAACUACAGAAAUGUAGUUGAAUAAGAGGAGGUUUAACGAAUUCUCGGCGGAUGCCUCCAAA | < 1e-05 | < 1e-05 | < 1e-05 | < 1e-05 | –
AUAAAACCGCCAGAACUACAGAAAUGUAGUUGACAAGGAGGAGGUUUAUCGAAUUUUCGGCGGAUGCCUCCAAA | < 1e-05 | < 1e-05 | < 1e-05 | < 1e-05 | –
AUAAAAGCGCCAGGACUACAGAAAUGUAGUUGACGUGGAGGAUGUUUAUCGAAUUUUCGGCGGAUGCCUCCAAA | < 1e-05 | < 1e-05 | – | – | –
AUAAAAGCGCCAGAACUACAGAAAUGUAGUUGACGAGGAGUAGGUUUAUCGAAUUUUCGGAGGAUGCCUCCAAA | < 1e-05 | < 1e-05 | < 1e-05 | – | < 1e-05
AUAAAAGCGCCAGAGCUACAGAAAUGUAGUUGACUAGGAGGAGGUUUAUCGAAUUUUCGGCGGAUGCCUCCAAA | < 1e-05 | < 1e-05 | – | < 1e-05 | < 1e-05
AUAAAAGCGCCAGAACUACAGAAAUGUAGUUGACGGGGAGGAAGUUUAUCGAAUUUUAGGCCGAUGCGUCCAAA | < 1e-05 | < 1e-05 | – | – | –
AUAAAAGCGCCAGAACUACAGAAAUGUAGUUGACGAGGACGAUGUUUAUCGAAUUUUCGGCGGAUGCCUACAAA | < 1e-05 | < 1e-05 | – | – | –
AUAAAAGCGCCAGUACUACAGAAAUGUAGUUGACGAGGAAGAGGUUUAUCGAAUUGUCGGCGGAUGCCUCCAAA | 0.000117 ± 2.9e-05 | 0.00163 ± 0.00045 | – | – | –
AUAAAAGGGCCAGAACUACAGAAAUGUAGUUGACGAGGAGGAGGUUUAUCGAAUUUUCGGGGGAUGCCUCCAAA | < 1e-05 | < 1e-05 | < 1e-05 | < 1e-05 | < 1e-05
AUAAAAGCGCCCGAACUACAGAAAUGUAGUUGACGAGGAGGAUGUUUAUCGAAUUUUCGGCGGAUGCCUCAAAA | < 1e-05 | – | – | – | –
AUAAAAGCGCCAGAACUACAGAAAUGUAAUUGACGAGGAGGAGGUUUAUCGAACUUUCGGCGGAUGCCUCCAAA | 0.000148 ± 3.6e-05 | – | 0.000813 ± 0.00033 | 0.00138 ± 0.00056 | 0.000257 ± 7e-05
AUAAAAGCGCCUGGACUACAGAAAUGUAGUUGACGAGGAGGAGGUUUAUCGAAUUUUCGGCGGUUUCCUCCAAA | < 1e-05 | – | – | – | –
